Our source for the activity (1-depletion score) values is US20230383273.

Assay in all cases: cleavage_in_vitro
The test system of data set [1] is T1, OMNI-75 (Lactococcus sp. 1JSPR-7).
T1 sequence: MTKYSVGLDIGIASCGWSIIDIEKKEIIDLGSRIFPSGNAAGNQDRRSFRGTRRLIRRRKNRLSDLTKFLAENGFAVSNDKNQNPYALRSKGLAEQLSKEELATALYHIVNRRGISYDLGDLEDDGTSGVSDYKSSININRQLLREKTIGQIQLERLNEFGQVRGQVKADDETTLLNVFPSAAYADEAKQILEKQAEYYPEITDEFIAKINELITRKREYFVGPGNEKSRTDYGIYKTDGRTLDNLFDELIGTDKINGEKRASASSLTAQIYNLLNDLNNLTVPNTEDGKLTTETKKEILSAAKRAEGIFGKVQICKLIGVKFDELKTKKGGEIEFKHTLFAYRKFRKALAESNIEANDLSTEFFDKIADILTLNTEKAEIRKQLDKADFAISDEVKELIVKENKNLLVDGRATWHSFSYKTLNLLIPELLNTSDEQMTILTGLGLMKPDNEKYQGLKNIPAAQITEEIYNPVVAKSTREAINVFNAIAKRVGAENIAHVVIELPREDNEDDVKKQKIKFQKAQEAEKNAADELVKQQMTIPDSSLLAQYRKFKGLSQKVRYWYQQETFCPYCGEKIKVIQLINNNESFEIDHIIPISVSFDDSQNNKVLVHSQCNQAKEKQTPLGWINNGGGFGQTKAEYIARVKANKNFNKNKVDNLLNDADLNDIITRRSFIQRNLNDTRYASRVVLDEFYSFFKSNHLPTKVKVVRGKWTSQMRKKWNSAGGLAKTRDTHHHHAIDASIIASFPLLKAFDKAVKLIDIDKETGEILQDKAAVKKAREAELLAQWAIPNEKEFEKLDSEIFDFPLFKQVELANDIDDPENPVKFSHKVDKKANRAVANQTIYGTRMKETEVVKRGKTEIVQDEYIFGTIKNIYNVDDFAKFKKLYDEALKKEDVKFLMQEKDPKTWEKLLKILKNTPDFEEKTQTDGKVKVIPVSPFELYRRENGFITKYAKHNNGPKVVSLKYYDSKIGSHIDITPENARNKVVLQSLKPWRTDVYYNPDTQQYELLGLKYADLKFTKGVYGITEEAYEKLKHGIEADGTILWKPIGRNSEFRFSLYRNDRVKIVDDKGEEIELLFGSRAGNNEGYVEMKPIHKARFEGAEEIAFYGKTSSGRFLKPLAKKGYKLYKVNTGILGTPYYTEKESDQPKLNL
The conditions noted are these: PAM NNGNRA; TXTL.

Data set [2] relates to T2, OMNI-84 (Porphyrobacter donghaensis).
T2 sequence: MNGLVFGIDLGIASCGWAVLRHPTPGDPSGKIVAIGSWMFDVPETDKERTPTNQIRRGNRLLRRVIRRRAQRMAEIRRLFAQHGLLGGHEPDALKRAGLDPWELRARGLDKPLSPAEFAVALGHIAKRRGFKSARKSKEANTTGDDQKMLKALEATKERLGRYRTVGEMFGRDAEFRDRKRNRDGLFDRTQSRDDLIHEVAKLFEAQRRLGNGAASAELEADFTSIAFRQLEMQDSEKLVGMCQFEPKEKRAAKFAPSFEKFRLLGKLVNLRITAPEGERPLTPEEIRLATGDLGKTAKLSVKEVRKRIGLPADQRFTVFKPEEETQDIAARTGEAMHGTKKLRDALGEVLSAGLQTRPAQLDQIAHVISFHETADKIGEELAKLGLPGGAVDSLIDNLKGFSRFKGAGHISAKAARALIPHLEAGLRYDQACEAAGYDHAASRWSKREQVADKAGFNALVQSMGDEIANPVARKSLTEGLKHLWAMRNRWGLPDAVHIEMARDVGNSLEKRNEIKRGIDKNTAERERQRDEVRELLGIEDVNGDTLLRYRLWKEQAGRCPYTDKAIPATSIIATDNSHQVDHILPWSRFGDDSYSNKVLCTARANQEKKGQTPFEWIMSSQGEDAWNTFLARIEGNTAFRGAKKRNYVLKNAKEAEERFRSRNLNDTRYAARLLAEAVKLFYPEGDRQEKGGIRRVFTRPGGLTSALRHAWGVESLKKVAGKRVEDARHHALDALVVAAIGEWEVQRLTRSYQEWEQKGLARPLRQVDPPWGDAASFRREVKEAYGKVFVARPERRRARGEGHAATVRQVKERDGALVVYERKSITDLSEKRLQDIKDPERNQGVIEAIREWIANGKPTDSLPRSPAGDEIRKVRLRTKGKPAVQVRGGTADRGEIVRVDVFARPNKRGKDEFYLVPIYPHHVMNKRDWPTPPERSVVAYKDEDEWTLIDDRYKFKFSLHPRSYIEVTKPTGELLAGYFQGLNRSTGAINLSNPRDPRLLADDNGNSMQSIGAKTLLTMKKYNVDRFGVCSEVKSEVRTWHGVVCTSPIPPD
The conditions noted are these: PAM NNNNGCAA; TXTL.

For data set [3], the system named is T3, OMNI-78 (Notoacmeibacter marinus).
T3 sequence: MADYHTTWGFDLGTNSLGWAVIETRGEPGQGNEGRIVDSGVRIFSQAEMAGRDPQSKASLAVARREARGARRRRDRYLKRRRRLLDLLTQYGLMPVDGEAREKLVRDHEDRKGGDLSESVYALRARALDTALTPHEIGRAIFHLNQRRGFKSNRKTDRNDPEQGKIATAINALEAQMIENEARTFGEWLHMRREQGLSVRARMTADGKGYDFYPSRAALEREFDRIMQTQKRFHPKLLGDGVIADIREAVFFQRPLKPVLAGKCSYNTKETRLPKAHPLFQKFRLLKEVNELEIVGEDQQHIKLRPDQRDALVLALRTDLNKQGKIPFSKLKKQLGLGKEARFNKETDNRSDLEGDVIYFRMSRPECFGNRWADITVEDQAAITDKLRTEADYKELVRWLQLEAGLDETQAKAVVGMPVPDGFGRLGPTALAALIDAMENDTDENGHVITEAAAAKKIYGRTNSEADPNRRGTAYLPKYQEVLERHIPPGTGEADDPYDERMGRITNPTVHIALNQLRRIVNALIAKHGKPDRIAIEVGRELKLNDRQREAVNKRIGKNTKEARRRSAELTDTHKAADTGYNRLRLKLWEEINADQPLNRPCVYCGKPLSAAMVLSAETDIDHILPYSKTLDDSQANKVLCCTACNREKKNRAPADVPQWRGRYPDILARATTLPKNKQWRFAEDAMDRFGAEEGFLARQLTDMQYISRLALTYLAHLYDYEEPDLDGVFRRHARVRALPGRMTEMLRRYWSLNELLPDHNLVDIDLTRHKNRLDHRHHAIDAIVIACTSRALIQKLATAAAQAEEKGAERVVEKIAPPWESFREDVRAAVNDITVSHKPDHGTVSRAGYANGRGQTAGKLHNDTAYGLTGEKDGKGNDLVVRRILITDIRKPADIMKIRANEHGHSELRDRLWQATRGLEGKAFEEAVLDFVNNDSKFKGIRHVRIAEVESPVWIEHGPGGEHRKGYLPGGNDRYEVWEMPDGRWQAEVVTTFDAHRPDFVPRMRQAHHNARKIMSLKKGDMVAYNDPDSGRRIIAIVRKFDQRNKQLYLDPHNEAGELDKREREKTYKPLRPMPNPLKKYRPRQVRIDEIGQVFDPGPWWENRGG
The conditions noted are these: PAM NRRNAT; TXTL.

Data set [4] has as its system T4, OMNI-71 (Hyphobacterium sp. 2ED5).
T4 sequence: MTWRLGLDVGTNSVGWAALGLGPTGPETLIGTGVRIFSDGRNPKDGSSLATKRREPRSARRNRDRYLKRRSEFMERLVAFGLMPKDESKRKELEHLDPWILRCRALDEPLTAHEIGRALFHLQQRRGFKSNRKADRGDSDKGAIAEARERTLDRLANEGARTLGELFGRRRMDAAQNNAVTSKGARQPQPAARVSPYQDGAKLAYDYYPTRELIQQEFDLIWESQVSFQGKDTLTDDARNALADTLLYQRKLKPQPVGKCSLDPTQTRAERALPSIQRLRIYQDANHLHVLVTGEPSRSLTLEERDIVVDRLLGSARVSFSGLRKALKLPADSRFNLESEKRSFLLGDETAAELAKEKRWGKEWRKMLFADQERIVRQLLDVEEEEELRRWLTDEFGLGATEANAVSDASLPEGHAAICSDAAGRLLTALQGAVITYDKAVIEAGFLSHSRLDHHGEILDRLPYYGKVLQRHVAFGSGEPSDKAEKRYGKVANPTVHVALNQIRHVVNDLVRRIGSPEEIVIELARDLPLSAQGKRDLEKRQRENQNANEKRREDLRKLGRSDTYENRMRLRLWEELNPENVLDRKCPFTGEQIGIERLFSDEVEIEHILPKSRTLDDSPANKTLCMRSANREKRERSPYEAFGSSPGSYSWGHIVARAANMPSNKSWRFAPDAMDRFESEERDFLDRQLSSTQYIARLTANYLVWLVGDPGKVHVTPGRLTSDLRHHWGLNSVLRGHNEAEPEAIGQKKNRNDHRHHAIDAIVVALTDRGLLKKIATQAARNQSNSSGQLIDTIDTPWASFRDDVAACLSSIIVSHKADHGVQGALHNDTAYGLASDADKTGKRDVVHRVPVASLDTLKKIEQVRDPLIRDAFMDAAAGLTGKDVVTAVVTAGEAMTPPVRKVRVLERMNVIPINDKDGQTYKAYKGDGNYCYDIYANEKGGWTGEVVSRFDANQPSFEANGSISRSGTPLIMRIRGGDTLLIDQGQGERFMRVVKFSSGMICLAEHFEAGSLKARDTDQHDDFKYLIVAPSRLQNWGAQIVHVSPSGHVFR
The conditions noted are these: PAM NGG; TXTL.

In the case of “GGAAGAGCAGAGCCUUGGUCUCGUUUUUGUACUCUCAAGAAAUUGAGAAUCUACAAGGAUAAGGCUUUAUGCCGAAAUCAUUAACUCGCCUUUGGGCGAGUUUUUU / GGAAGAGCAGAGCCTTGGTCTCNNNNNNNN / NNNNNNNNGAGACCAAGGCTCTGCTCTTCC”, in data set [1], the activity (1-depletion score) came to 0.93. Regarding “GGAAGAGCAGAGCCUUGGUCUCGCCGUGGUUUCCCUACCGAUUUGCCCAUGGUAGGGAAAGUUAUCGGCAAAUCGGUAGGGAAGCCACGGUAACAGAGCUUCACUGUGAAGGAUCAUCCUGAAGGGGAAAUUCCUUAUUGAAGCACUGAUACAGAGCUUCUGUAUUCAAACGACCCUUUCUGAGAUAUCAGAGAGGGUCGUUUUU / GGAAGAGCAGAGCCTTGGTCTCNNNNNNNN / NNNNNNNNGAGACCAAGGCTCTGCTCTTCC”, the activity (1-depletion score) in data set [2] turned out to be 0.93. The sequence “GGAAGAGCAGAGCCUUGGUCUCGUUGCGGUUGGCCUGCGAGAAAUCGCAGUCCAGCCGUUAACAAGCUGAGAUAUGCACCAGAUAAGGCGCUCGCUCCGGCGAGCGCUUUUUU / GGAAGAGCAGAGCCTTGGTCTCNNNNNNNN / NNNNNNNNGAGACCAAGGCTCTGCTCTTCC” came in with an activity (1-depletion score) in data set [3] of 0.9. In data set [4], “GGAAGAGCAGAGCCUUGGUCUCGUUCCGGUUGGAGAAAUCUUUCCGGUAACAAGGUUUAGACCACAAAAUGGAACGGCCUCUUCGGGGGUCGUUCUUUUUUU / GGAAGAGCAGAGCCTTGGTCTCNNNNNNNN / NNNNNNNNGAGACCAAGGCTCTGCTCTTCC” displayed an activity (1-depletion score) of 0.96.
